Assay [1] has as its target T1, 4H908-bH.
T1 chain: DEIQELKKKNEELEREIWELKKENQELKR
The experiment in a line: two-hybrid library CCNG1.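 Further: natural log of median RNA to DNA barcode read ratio; higher means stronger binding.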

For assay [2], the target named is T2, 4H967-bH.
T2 chain: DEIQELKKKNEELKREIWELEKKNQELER
The experiment in a line: two-hybrid library CCNG1.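 Further: natural log of median RNA to DNA barcode read ratio; higher means stronger binding.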

For assay [3], the target named is T3, 4H953-bH.
T3 chain: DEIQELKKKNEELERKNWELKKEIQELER
The assay can be described thus: two-hybrid library CCNG1.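 Further: natural log of median RNA to DNA barcode read ratio; higher means stronger binding.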

The target of assay [4] is T4, 4H918-bH.
T4 chain: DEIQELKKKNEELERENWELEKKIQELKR
The experiment in a line: two-hybrid library CCNG1.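 Further: natural log of median RNA to DNA barcode read ratio; higher means stronger binding.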

In assay [5] the target is T5, 4H883-bH.
T5 chain: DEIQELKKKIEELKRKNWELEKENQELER
The experiment in a line: two-hybrid library CCNG1.

For assay [6], the target named is T6, APC9141-AA.
T6 chain: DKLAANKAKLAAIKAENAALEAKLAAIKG
The assay can be described thus: two-hybrid library CCmax.

Assay [7] has as its target T7, APC9806-AA.
T7 chain: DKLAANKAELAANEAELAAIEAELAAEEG
The assay can be described thus: two-hybrid library CCmax. Particulars: mean of both orientations.

Assay [8] deals with T8, APC9182-AA.
T8 chain: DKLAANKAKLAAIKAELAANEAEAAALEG
The experiment in a line: two-hybrid library CCmax. Conditions: mean of both orientations.

Assay [9] concerns the target T9, APC9291-AA.
T9 chain: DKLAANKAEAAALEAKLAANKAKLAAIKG
The assay can be described thus: two-hybrid library CCmax. Particulars: mean of both orientations.

In assay [10] the target is T10, 4H968-bA.
T10 chain: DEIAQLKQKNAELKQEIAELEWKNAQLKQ
The assay can be described thus: two-hybrid library CCNG1.

Assay [11] concerns the target T11, 4H968-bN.
T11 chain: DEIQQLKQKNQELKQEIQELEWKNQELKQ
The assay can be described thus: two-hybrid library CCNG1.

Assay [12] has as its target T12, 4H967-bN.
T12 chain: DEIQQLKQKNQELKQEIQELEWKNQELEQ
The experiment in a line: two-hybrid library CCNG1.

Assay [13] deals with T13, 4H953-bN.
T13 chain: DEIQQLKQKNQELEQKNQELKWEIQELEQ
The assay can be described thus: two-hybrid library CCNG1.

Assay [14] concerns the target T14, 4H754-bH.
T14 chain: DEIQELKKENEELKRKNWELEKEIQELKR
The assay can be described thus: two-hybrid library CCNG1.

Assay [15] deals with T15, 4H797-bH.
T15 chain: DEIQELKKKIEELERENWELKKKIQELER
The assay can be described thus: two-hybrid library CCNG1.

Assay [16] deals with T16, 4H72-bH.
T16 chain: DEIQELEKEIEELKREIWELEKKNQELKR
The assay can be described thus: two-hybrid library CCNG1.

Consider DEIQELKKKIEELKRKNWELEKENQELER [4H883-bH], for which the interaction score is -0.306 in [1]; -0.709 in assay [2]; -0.831 in [3]; -0.51 in assay [4]; 0.33 in [5].
DKLAANKAKLAAIKAENAALEAKLAAIKG [APC9141-AA]: the interaction score was -2.08 in assay [6], -1.67 in assay [7], -1.82 in assay [8] and -1.86 in [9].
As for DEIAQLKQKNAELKQEIAELEWKNAQLKQ [4H968-bA], the interaction score in assay [10] is -1.46.
Regarding DEIQQLKQKNQELEQKNQELKWEIQELEQ [4H953-bN], the interaction score in [11] was -1.24; in assay [12], -1.76; in [13] it was -1.67.
DEIQELEKEIEELKREIWELEKKNQELKR [4H72-bH]: the interaction score was -0.378 in [14]; 0 in [15]; 0.614 in assay [1]; 0.0764 in assay [2]; 0.746 in assay [16]; 0.653 in assay [3]. The interaction score was determined as 0.163 in assay [4] and 1.69 in [5].

Values taken from publication PMC10397247.
